Test results as given in paper PMC11363490, “Structural and biochemical characterization of cauliflower mosaic virus reverse transcriptase”.

B1: RNA-24/DNA-22 hybrid (DNA:RNA)
RNA: GGCAGUGGUCCAGCAGUGCGUAGC
DNA: GCTACGCACTGCTGGACCACTG

Key:
[1] = biological target: CaMV RT RNase H mutant D421N (cauliflower mosaic virus)
CaMV RT = CaMV RT (Cauliflower mosaic virus, UniProt A0A2D2PYL0 197-675); experiment: gel filtration; 5 mM MgCl2; stable 1:1 complex; Gel filtration: 25 mM Hepes pH 7.5, 200 mM NaCl, 5% glycerol, 5 mM MgCl2, 1 mM DTT, 30 min on ice; crystals: protein in 20 mM Hepes pH 7.5, 200 mM NaCl, 5% glyc; conditions: protein: recombinant; tags: none (N-terminal 6xHis-SUMO removed with Ulp1); 5' overhang 2 nt on RNA strand (GG), 22 bp

Molecule | RNase H cleavage efficiency on R40/D28, 1:1:1 mixture of wt RT:mutant RT:substrate, 120 min (against ∼18% for 1:1 wt enzyme:substrate) [1] | binding result (CaMV RT)
cauliflower mosaic virus (CaMV) reverse transcriptase, wild type (from UniProt P03554 1-679) (enzyme) | 60% | –
B1 | – | binds
